Laboratory results: patent US12714676B2, “Compositions and methods for targeted delivery of therapeutics using carriers” (VESSELON, INC., priority 2020, dated 2026)

Legend:
[1] = in the human body; cited from earlier work
[2] = cited from earlier work
[3] = patients, package insert; cited from earlier work
[4] = HT29 xenograft, bevacizumab-awwb concentration in excised tumors (HPLC); format: in vivo, athymic nude mice; details: Day 3
Experimental: A non-GLP study was conducted (Metis Labs, Ronkonkoma, NY, USA) using Imagent microbubbles, a human monoclonal antibody and ultrasound with a TE7 and P4-2S probe (Mindray North America, New Jersey, USA); settings used were 2.2 MHz frequency, 0.35 and 0.70 mechanical indexes (MI) during insonation, once every 10 seconds, a microbubble destruct pulse of 1.3 MI lasting 1,100 milliseconds was applied. Total insonation time of 5 minutes per animal was used. Imagent was conjugated with bevacizumab-awwb (Mvasi®, Amgen, Thousand Oaks, CA, USA) (“eBev”) in HT29 human colorectal carcinoma model.
Thirty-six athymic nude mice (The Jackson Laboratory, Bar Harbor, ME, USA) were randomized into 9 groups of 4 mice and once tumor volumes reached ~200 mm^3, the mice were treated once on day 1. Animals were euthanized on Day 3. The bevacizumab-awwb (either eBev or free bevacizumab-awwb) dose was 100 μL of either a 25:1, 50:1, or 5:1 dilution, depending on the experimental arm, via intravenous administration (i.v.) via jugular vein catheter (Instech One Channel Mouse Button, Instech, Plymouth Meeting, PA, USA). […]

O=C1[O][Pt]2([NH][C@@H]3CCCC[C@H]3[NH]2)[O]C1=O [Oxaliplatin]
half-life [1]: about 14 minutes

FC(F)(F)C(F)(F)C(F)(F)C(F)(F)C(F)(F)C(F)(F)F [Perfluorohexane]
water solubility, times lower than octafluoropropane [2]: 704 times | water solubility, times lower than sulfur hexafluoride [2]: 1,000 times

Avastin: recombinant humanized monoclonal IgG1 antibody, vascular endothelial growth factor inhibitor
Grade 3-5 hemorrhagic events [3]: 0.4-7.0% | Grades 3-4 hypertension [3]: 5-18% | Grades 3-5 Arterial Thromboembolic Events [3]: 5% | gastrointestinal perforations [3]: 0.3-3.0% | ovarian failure [3]: 34% | proteinuria [3]: 20%

bevacizumab-awwb: bevacizumab-awwb (Mvasi, Amgen), human monoclonal antibody
mean concentration of bevacizumab-awwb as measured in the tumors ([4]; Group 2: free bevacizumab-awwb only, 25:1 dilution, i.v.): around 3 μg | mean concentration of bevacizumab-awwb as measured in the tumors ([4]; Groups 3a-3d: free bevacizumab-awwb 25:1 co-administered with Imagent microbubbles + ultrasound): around 3 μg
